For this assay, the target named is T1, telomerase (hTERT) peptide on HLA-A*02:01 (human).
T1 peptide: RLVDDFLLV
Briefly: multimer staining.

B1: TCR specific for the HLA-A2/hTERT865-873 complex (α5 and β3 chains, SEQ. ID. no. 1 and 2) (TCR, V domains shown)
Valpha: GEQVEQRPPHLSVREGDSAVIICTYTDPNSYYFFWYKQEPGAGLQLLMKVFSSTEINEGQGFTVLLNKKDKQLSLNLTAAHPGDSAVYFCAVRHDSGYNKLTFGKGTVLLVSP
Vbeta: NSKVIQTPRYLVKGQGQKAKMRCIPEKGHPVVFWYQQNKNNEFKFLINFQNQEVLQQIDMTEKRFSAECPSNSPCSLEIQSSEAGDSALYLCASSLSKGGFYEQYFGPGTRLTVL
B1: the binding result is reported as “recognises”.

Source of the values: patent publication EP3271384B1 (dated 2023).
